{"source": "patent US20170253670A1", "about": "(Hoffmann-La Roche, published 2017)", "key": {"[1]": {"biological_target": "T1, murine FolR1 monovalent Fc fusion, biotinylated (murine, UniProt P35846 25-232, biotin on C-terminal Avi-tag ; Biotin on the C-terminal Avi-tag of the Fc-knob chain (that part is not in the letters).)", "T1 construct": "as m1; also called muFolR1; murine FolR1-Fc; not shown: IgG hinge, Fc-knob and C-terminal Avi-tag fused to the ECD, and the co-expressed Fc-hole chain", "T1 sequence (P35846 25-232 limits assumed)": "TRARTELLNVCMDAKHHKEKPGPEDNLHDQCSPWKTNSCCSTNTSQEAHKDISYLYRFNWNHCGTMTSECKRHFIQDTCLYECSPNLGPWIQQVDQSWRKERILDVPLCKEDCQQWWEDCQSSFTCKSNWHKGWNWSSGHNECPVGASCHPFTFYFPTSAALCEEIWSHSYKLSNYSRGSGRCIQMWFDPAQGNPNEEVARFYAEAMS", "assay": "SPR ProteOn, Fab analyte, antigen on chip", "experimental": "Immobilization of antigens (ligand): Recombinant antigens were diluted with PBST (10 mM phosphate, 150 mM sodium chloride pH 7.4, 0.005% Tween 20) to 10 μg/ml, then injected at 30 μl/minute in vertical orientation. Injection of analytes: For ‘one-shot kinetics’ measurements, injection direction was changed to horizontal orientation, two-fold dilution series of purified Fab (varying concentration ranges) were injected simultaneously along separate channels 1-5, with association times of 150 or 200 s, and dissociation times of 200 or 600 s, respectively. Buffer (PBST) was injected along the sixth channel to provide an “in-line” blank for referencing. Association rate constants (kₒₙ) and dissociation rate constants (koff) were calculated using a simple one-to-one Langmuir binding model in ProteOn Manager v3.1 software by simultaneously fitting the association and dissociation sensorgrams. The equilibrium dissociation constant (KD) was calculated as the ratio koff/kₒₙ."}, "[2]": {"biological_target": "T2, human BCMA on myeloma cells (H929, U266) (human, UniProt Q02223 1-184)", "T2 sequence (looked up)": "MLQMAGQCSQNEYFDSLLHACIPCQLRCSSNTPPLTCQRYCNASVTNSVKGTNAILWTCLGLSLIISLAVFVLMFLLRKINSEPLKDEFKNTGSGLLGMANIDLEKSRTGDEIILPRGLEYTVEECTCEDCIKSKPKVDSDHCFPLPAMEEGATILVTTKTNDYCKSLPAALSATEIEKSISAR", "assay": "cell-based or functional assay"}, "[3]": {"biological_target": "T2, human BCMA on myeloma cells (H929, U266)", "assay": "cell-based or functional assay", "remark": "listed apart in the source"}, "[4]": {"biological_target": "T2, human BCMA on myeloma cells (H929, U266)", "assay": "flow cytometry, H929 cells", "experimental": "(§1) Briefly, cultured cells are harvested, counted and cell viability was evaluated using ViCell. Viable cells are then adjusted to 2×10⁶ cells per ml in BSA-containing FACS Stain Buffer (BD Biosciences). 100 μl of this cell suspension were further aliquoted per well into a round-bottom 96-well plate and incubated with 30 μl of the BCMA-TCB CLC antibodies or corresponding TCB control for 30 min at 4° c. All BCMA-TCB CLC antibodies (and TCB controls) were titrated and analyzed in final concentration range between 0.12-500 nM. […] Cells were then washed twice with Stain Buffer (BD Biosciences), fixed using 100 ul BD Fixation buffer per well (#BD Biosciences, 554655) at 4° C. for 20 min, resuspended in 120 μl FACS buffer and analyzed using BD FACS CantoII."}, "[5]": {"biological_target": "T3, recombinant human BCMA Fc(kih) (human, UniProt Q02223 4-53, biotin on avi-tag where coupled to SA chip ; biotin on the avi-tag of the Fc-knob chain where coupled to the SA chip (tag not in the letters))", "T3 construct": "also called huBCMA Fc(kih); huBCMA; not shown: human IgG1 hinge-Fc(knob)-avi fused to the ECD, and the unfused Fc(hole) chain", "T3 chain": "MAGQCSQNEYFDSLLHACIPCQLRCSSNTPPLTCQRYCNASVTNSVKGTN", "assay": "SPR Biacore, binder captured via anti-Fab, BCMA-Fc analyte"}, "[6]": {"biological_target": "T4, recombinant murine BCMA Fc(kih) (murine, UniProt O88472 2-49, biotinylated at the avi-tag of the Fc knob chain (not in the letters))", "T4 construct": "also called muBCMA Fc(kih); not shown: human IgG1 hinge-Fc(knob)-avi and the unfused Fc(hole) chain", "T4 chain": "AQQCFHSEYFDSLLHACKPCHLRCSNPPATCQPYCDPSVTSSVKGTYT", "assay": "SPR Biacore, binder captured via anti-Fab, BCMA-Fc analyte"}, "[7]": {"biological_target": "T5, human FolR1 on cells (HeLa, SKOV3, HT-29, transfected HEK) (human, UniProt P15328 25-234)", "T5 construct": "whole, on cells", "T5 sequence (P15328 25-234)": "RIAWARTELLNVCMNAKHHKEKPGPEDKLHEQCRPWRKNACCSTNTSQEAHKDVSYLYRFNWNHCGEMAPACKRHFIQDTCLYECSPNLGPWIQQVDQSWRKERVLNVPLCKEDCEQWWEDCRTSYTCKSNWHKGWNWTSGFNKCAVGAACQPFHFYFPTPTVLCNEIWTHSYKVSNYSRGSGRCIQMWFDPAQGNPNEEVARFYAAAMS", "assay": "flow cytometry, tumor cell panel"}, "[8]": {"biological_target": "T2, human BCMA on myeloma cells (H929, U266)", "assay": "flow cytometry on BCMA-positive H929 cells, PE anti-human Fc secondary antibody, median fluorescence intensity", "experimental": "as §1"}}, "note": "Values joined by “and” are separate entries in the source; they are usually repeats but may differ in a detail not shown here. Identical values can stand only once.", "data": [{"binder": "14E4 Fab (Fab, V domains shown, as m51) VH: not shown VL: EIVLTQSPGTLSLSPGERATLSCRASQSVSSSYLAWYQQKPGQAPRLLIYGASSRATGIPDRFSGSGSGTDSTLTISRLEPEDFAVYYCQQPTSSPITFGQGTKVEIK", "values": [{"measurement": "Kd", "setting": "[1]", "value": 6.09, "unit": "nM"}]}, {"binder": "pSCHLI372-TCB CLC (bispecific antibody, also called pSCHLI372 BCMAxCD3 TCB) heavy 1: not shown heavy 2: EVQLVESGGGLVKPGGSLRLSCAASGFTFSNSGMIWVRQAPGKGLEWVGHIRSKTDGGTTDYAAPVKGRFTISRDDSKNTLYLQMNSLKTEDTAVYYCTTGGSGSFDYWGQGTLVTVSSASTKGPSVFPLAPSSKSTSGGTAALGCLVKDYFPEPVTVSWNSGALTSGVHTFPAVLQSSGLYSLSSVVTVPSSSLGTQTYICNVNHKPSNTKVDKKVEPKSCDKTHTCPPCPAPEAAGGPSVFLFPPKPKDTLMISRTPEVTCVVVDVSHEDPEVKFNWYVDGVEVHNAKTKPREEQYNSTYRVVSVLTVLHQDWLNGKEYKCKVSNKALGAPIEKTISKAKGQPREPQVCTLPPSRDELTKNQVSLSCAVKGFYPSDIAVEWESNGQPENNYKTTPPVLDSDGSFFLVSKLTVDKSRWQQGNVFSCSVMHEALHNHYTQKSLSLSPGK light: QAVVTQEPSLTVSPGGTVTLTCGSSTGAVTTSNYANWVQEKPGQAFRGLIGGTNKRAPGTPARFSGSLLGGKAALTLSGAQPEDEAEYYCALWYSNLWVFGGGTKLTVLGQPKAAPSVTLFPPSSEELQANKATLVCLISDFYPGAVTVAWKADSSPVKAGVETTTPSKQSNNKYAASSYLSLTPEQWKSHRSYSCQVTHEGSTVEKTVAPTECS", "values": [{"measurement": "EC50 redirected T-cell killing, H929 (Experiment 1)", "setting": "[2]", "value": "450 pM and 0.08 µg/ml"}, {"measurement": "EC50 redirected T-cell killing, H929 (Experiment 2)", "setting": "[2]", "value": "900 pM and 0.17 µg/ml"}, {"measurement": "EC50 redirected T-cell killing, U266", "setting": "[3]", "value": "5700 pM and 1.1 µg/ml"}, {"measurement": "EC50", "setting": "[4]", "value": "345 nM and 65.9 µg/mL"}, {"measurement": "Kd", "setting": "[5]", "value": 63, "unit": "nM"}, {"measurement": "Kd", "setting": "[6]", "value": 344, "unit": "nM"}]}, {"binder": "DP47 GS TCB (2+1 Crossfab-IgG P329G LALA inverted, untargeted TCB) (bispecific antibody, negative control; also called DP47 TCB; DP47-TCB) heavy 1: not shown heavy 2: not shown light 1: not shown light 2: QAVVTQEPSLTVSPGGTVTLTCGSSTGAVTTSNYANWVQEKPGQAFRGLIGGTNKRAPGTPARFSGSLLGGKAALTLSGAQPEDEAEYYCALWYSNLWVFGGGTKLTVLSSASTKGPSVFPLAPSSKSTSGGTAALGCLVKDYFPEPVTVSWNSGALTSGVHTFPAVLQSSGLYSLSSVVTVPSSSLGTQTYICNVNHKPSNTKVDKKVEPKSC", "values": [{"measurement": "binding result", "setting": "[7]", "value": "no binding"}, {"measurement": "binding result", "setting": "[8]", "value": "no binding (tested: 500 nM)"}]}]}
